The values that follow come from the RNAGym collection of RNA variant scans (doi:10.7554/elife.80360).

B1: Twister Ribozyme (parent)
chain: AACACUGCCAAUGCCGGUCCCAAGCCCGGAUAAAAGUGGAGGGGGCGG

The variants in the series derive from B1. Nature of the series: self-cleavage, relative activity (ratio to wild type); higher = more cleavage; co-transcriptional.
For AACACCGCCAAUGCCGGUCCCAAGCCCGGAUAAAAGCGGAGGGGGCGG [U6C U37C], the self-cleavage was determined as 0.0955.

Consider AACACUGCUAAUGCCGGUCCCAAGCCCGGAUAAAAGUGGAGUGGGCGG [C9U G42U], for which the self-cleavage came to 0.102.

As to AACGCUGCCAAUGCUGGUCCCAAGCCCGGAUAAAAGUGGAGGGGGCGG [A4G C15U], the self-cleavage is 0.944.

On to AACACUGGCAAUGCCGGUCCCAAGCCCGGAUAAAAGUGGAGGGGGCGG [C8G], for which the self-cleavage was found to be 0.558.

Take AACACGGCCAAUGCCAGUCCCAAGCCCGGAUAAAAGUGGAGGGGGCGG [U6G G16A]: the self-cleavage is 0.226.

On to ACCACUGCCAAUGCCGGUCCCAAGCCCGGACAAAAGUGGAGGGGGCGG [A2C U31C], for which the self-cleavage amounted to 0.0894.

On to AACACUGCCAAUGCCGGUCCCAAGGCCGGAUUAAAGUGGAGGGGGCGG [C25G A32U], for which the self-cleavage was 0.19.

Turning to AACACUGCCAAUGCCGGUCCCCAGCCCGGAGAAAAGUGGAGGGGGCGG [A22C U31G], the self-cleavage amounted to 0.987.

Consider AACACUGCCACUGCCGGUCCCAAGCCCGGAUAAAAGUGGAGUGGGCGG [A11C G42U], for which the self-cleavage was determined as 0.136.

Take CACACUGCCAAUGCCGGUCCCGAGCCCGGAUAAAAGUGGAGGGGGCGG [A1C A22G]: the self-cleavage worked out at 0.149.

For the variant AACACUGCCAAUGCCCGUCACAAGCCCGGAUAAAAGUGGAGGGGGCGG [G16C C20A], the self-cleavage amounted to 0.0672.

Turning to AACUCUGCAAAUGCCGGUCCCAAGCCCGGAUAAAAGUGGAGGGGGCGG [A4U C9A], the self-cleavage was 0.0614.

Consider AACACUGCCAAUGCCGGUCCCAAGCCCGGAAAAAAGUGGAGGCGGCGG [U31A G43C], for which the self-cleavage was 0.168.

For AACGCUGCCAAUUCCGGUCCCAAGCCCGGAUAAAAGUGGAGGGGGCGG [A4G G13U], the self-cleavage worked out at 0.327.

For the variant AACACUGCCAAUGCCGGUCCCAAGCCCGGAUACAAGUGGGGGGGGCGG [A33C A40G], the self-cleavage came out at 0.182.

Consider AACACUGCCAAUGCCGGUCCCAAGCACGGAUAAAAGUGGUGGGGGCGG [C26A A40U], for which the self-cleavage was found to be 0.107.

With AACACUGCCAAUGCCGGUCCCAAUCCCGGCUAAAAGUGGAGGGGGCGG [G24U A30C], the self-cleavage is 0.0633.

AACACUGCCGGUGCCGGUCCCAAGCCCGGAUAAAAGUGGAGGGGGCGG [A10G A11G]: the self-cleavage worked out at 0.886.

With AACACUGCCAAUGCCGGUCCCAAGCCGGGAUAAAAGUGGAGGGAGCGG [C27G G44A], the self-cleavage is 0.0871.

Take AACACUGCCAAUGCAGGUCCGAAGCCCGGAUAAAAGUGGAGGGGGCGG [C15A C21G]: the self-cleavage is 0.0777.

In the case of AACACUGCCAAUUACGGUCCCAAGCCCGGAUAAAAGUGGAGGGGGCGG [G13U C14A], the self-cleavage stood at 0.687.

Consider AACACUGCCAAUCCCGGUCUCAAGCCCGGAUAAAAGUGGAGGGGGCGG [G13C C20U], for which the self-cleavage was found to be 0.125.

Consider AACACUGCCAAUGCCGGUCACAUGCCCGGAUAAAAGUGGAGGGGGCGG [C20A A23U], for which the self-cleavage amounted to 0.0802.

Turning to AACACUGCCAAUGCCGGUCCCAAGCCCGGAUAAACGUGCAGGGGGCGG [A35C G39C], the self-cleavage was determined as 0.153.

For AACACUGCCAAUGCCGGUCACAAGUCCGGAUAAAAGUGGAGGGGGCGG [C20A C25U], the self-cleavage came to 0.112.

Turning to AACACUGCCAAUACCGGUCCCAAGCCCGGAUAAAAGUGGUGGGGGCGG [G13A A40U], the self-cleavage stood at 0.209.

For the variant AACACUGCCAAUCCCGUUCCCAAGCCCGGAUAAAAGUGGAGGGGGCGG [G13C G17U], the self-cleavage turned out to be 0.114.

Take AACACUGCCAAUGCCGGUCCCAAGCCCGGAUUAAAGUGGAGGGGGGGG [A32U C46G]: the self-cleavage came to 0.973.

For the variant AACACUGGCAAUGCCGGUCCCAAGCCCGGAUAAAAGUGGAGGGGGUGG [C8G C46U], the self-cleavage stood at 0.424.

For AACACUGCCAAUGCCGGUCCCAAGCCCGGAUAAUAGUUGAGGGGGCGG [A34U G38U], the self-cleavage stood at 0.506.

Consider AACACUGCCAAUGCCGGUCCCAAGCCCGCAUAAAACUGGAGGGGGCGG [G29C G36C], for which the self-cleavage stood at 0.122.

As for AACCCUGCCAAUGCCGGUCCCAAGCACGGAUAAAAGUGGAGGGGGCGG [A4C C26A], the self-cleavage came to 0.0425.

As to AACACUGCCAAUGCCUGUCCCAAGCCCGGAUAAAAGUGGAGGGGGCAG [G16U G47A], the self-cleavage came out at 0.378.

Turning to ACCACUGCCAAUGCCGGUCCCAAGCCCGCAUAAAAGUGGAGGGGGCGG [A2C G29C], the self-cleavage was 0.0975.

Consider AACACUGCCAAUUCCGGUCCCAAGCCCGGAUAAAAGUGGAGGGGACGG [G13U G45A], for which the self-cleavage came to 0.308.

Consider AACACUGCCAAUGCCGGUCCCAGGCCCGGAUAAAAGUGGAGGUGGCGG [A23G G43U], for which the self-cleavage amounted to 0.0895.

For AACACUGCCAAUGCCGGCCCCAAGCCCGGAUAAAAGUGGAGGGGGCGG [U18C], the self-cleavage is 0.664.

Regarding AACACUGCCCAUGCCGGUCCCAAGACCGGAUAAAAGUGGAGGGGGCGG [A10C C25A], the self-cleavage stood at 0.0743.

Consider UACACUGCCAAUGCCGGUCCAAAGCCCGGAUAAAAGUGGAGGGGGCGG [A1U C21A], for which the self-cleavage amounted to 0.0801.

Consider ACCACUGCCAAUGCCGGUCUCAAGCCCGGAUAAAAGUGGAGGGGGCGG [A2C C20U], for which the self-cleavage stood at 0.0643.

Consider AACACUGCCAAUGCCGGUCCCAAGCCCGGAUAAAGGCGGAGGGGGCGG [A35G U37C], for which the self-cleavage turned out to be 0.056.

On to AACACUGUCAAUGCCGGUCCCAAGCCCGGAUAAAAGUGGAGGGGGCAG [C8U G47A], for which the self-cleavage turned out to be 0.43.

For AACACUGCCAAUGCCGGUCCCAAACCCAGAUAAAAGUGGAGGGGGCGG [G24A G28A], the self-cleavage was found to be 0.0708.

For AACACUGCCAAUGCCGGUCCCAAGCCCGGAUAAAGGUAGAGGGGGCGG [A35G G38A], the self-cleavage was determined as 0.199.

Turning to AACACUGCCAAUGCCGGUCCCCAGCACGGAUAAAAGUGGAGGGGGCGG [A22C C26A], the self-cleavage worked out at 0.46.

Take AACACUGCCAAUGCCGGUCCCAAGACCGGAUAAAAGUGCAGGGGGCGG [C25A G39C]: the self-cleavage amounted to 0.0833.

For AACACUGCUAAUGCUGGUCCCAAGCCCGGAUAAAAGUGGAGGGGGCGG [C9U C15U], the self-cleavage turned out to be 0.594.

In the case of AACAUUGCCAAUGCCGGUCCCAAGCCCGGAUAAAAGCGGAGGGGGCGG [C5U U37C], the self-cleavage came out at 0.283.

In the case of AACACUGCCAAUGCCGGUCCCAAGCCCGUAUAAAAGUGGAGGGCGCGG [G29U G44C], the self-cleavage turned out to be 0.858.

As for AACACUGCCAAUGCCGGUCCCAAGCCCGGAUAAAAUUGGAAGGGGCGG [G36U G41A], the self-cleavage is 0.124.

As to AACACUGCCAAUGCCGGUCCAAAGCCCGGAUAAAAGUUGAGGGGGCGG [C21A G38U], the self-cleavage came to 0.0847.

Take AACACUGCCAAUGCCGGUUCUAAGCCCGGAUAAAAGUGGAGGGGGCGG [C19U C21U]: the self-cleavage worked out at 0.0767.

As for AACACUGCCAAUGCCGGUCCCAAGCCCGGAUACAAGUGGAGGGGGCGA [A33C G48A], the self-cleavage was found to be 0.867.

For the variant AACACUGCCAAUGCCGGUCCCAAGCCCGGACAAAUGUGGAGGGGGCGG [U31C A35U], the self-cleavage was determined as 1.06.
